Common to all, as to test: ELISA; titration: wells sensitized with 1 μg/ml of collagen type I, II, III, IV, VI or C1q; increasing concentrations of C‐SSURE or N‐SSURE (0,016–10 μg/ml), detected with anti‐His antibody; dissociation constants calculated from the titration curves (Figure 3c,d)
For assay [1], the target named is type I collagen (calf (from calfskin)) (UniProt P02453).
The target in assay [2] is complement component C1q (human) (UniProt P02745).
The target of assay [3] is type III collagen (calf (from calfskin)) (UniProt P04258).
Sequence of type III collagen (calf (from calfskin)) (P04258 whole entry): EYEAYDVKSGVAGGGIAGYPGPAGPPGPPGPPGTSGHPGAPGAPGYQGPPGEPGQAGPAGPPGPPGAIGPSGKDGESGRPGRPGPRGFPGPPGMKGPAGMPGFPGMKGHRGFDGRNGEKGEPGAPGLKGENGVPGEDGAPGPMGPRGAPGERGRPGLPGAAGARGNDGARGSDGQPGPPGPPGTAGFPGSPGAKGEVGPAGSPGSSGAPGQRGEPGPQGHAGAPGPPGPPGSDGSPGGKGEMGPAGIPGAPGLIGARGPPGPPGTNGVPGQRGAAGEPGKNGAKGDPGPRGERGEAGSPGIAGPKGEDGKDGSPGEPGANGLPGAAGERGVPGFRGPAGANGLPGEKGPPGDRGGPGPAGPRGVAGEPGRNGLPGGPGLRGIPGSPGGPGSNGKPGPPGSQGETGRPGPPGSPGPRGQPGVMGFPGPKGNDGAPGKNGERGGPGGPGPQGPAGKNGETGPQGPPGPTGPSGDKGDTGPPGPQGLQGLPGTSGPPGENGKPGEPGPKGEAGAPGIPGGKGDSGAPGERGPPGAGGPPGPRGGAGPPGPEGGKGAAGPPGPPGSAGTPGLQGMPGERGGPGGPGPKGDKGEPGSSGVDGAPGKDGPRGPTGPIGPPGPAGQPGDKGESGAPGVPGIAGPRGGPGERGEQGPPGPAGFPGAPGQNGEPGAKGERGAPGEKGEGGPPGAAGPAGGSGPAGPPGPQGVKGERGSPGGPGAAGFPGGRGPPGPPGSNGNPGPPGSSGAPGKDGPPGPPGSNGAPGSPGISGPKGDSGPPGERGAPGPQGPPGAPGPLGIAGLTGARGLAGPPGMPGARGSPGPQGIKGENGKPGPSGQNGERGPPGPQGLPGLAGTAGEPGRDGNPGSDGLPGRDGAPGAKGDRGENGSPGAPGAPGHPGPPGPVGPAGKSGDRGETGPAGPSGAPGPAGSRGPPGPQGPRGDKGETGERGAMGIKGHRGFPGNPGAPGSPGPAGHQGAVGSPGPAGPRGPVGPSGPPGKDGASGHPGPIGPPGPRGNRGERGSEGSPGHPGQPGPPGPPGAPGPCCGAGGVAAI
In another assay the target is human type VI collagen (human, UniProt P12109 20-1028; P12110 21-1019; P12111 26-3177). As to conditions: both partners purified.
A further assay concerns the target human type IV collagen (human, UniProt P02462 173-1669; P08572 184-1712). As to conditions: both partners purified.

Sequence of type I collagen (calf (from calfskin)) (P02453 162-1217, chain 1 of 2): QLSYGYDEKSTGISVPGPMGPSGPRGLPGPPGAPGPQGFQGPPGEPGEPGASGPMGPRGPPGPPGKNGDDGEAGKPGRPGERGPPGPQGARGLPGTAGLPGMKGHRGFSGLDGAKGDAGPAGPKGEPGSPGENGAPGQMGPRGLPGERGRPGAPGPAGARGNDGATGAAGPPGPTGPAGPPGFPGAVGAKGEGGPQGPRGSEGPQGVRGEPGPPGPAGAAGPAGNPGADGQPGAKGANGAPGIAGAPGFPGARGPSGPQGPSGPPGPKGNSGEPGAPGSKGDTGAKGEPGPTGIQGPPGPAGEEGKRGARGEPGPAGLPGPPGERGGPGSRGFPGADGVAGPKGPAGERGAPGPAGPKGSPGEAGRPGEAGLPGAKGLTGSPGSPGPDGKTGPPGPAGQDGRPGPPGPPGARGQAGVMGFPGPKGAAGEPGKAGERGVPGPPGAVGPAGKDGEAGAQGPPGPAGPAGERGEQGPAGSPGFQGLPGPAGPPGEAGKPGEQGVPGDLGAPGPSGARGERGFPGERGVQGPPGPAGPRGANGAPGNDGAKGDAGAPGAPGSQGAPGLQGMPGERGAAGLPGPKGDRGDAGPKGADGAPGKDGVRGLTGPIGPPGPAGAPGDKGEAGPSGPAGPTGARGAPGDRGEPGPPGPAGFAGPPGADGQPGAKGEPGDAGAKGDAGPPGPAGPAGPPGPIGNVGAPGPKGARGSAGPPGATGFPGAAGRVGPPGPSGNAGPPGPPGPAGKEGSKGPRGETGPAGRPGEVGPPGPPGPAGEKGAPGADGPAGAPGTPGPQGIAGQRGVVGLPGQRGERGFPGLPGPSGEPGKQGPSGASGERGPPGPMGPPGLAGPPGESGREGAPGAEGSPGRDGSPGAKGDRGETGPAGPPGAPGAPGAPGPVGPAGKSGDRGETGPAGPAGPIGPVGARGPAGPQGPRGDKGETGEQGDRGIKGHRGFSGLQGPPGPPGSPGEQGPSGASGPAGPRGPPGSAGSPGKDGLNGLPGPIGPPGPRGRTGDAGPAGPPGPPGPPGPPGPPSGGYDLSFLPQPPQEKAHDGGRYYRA
Sequence of type I collagen (calf (from calfskin)) (P02465 80-1117, chain 2 of 2, further chain): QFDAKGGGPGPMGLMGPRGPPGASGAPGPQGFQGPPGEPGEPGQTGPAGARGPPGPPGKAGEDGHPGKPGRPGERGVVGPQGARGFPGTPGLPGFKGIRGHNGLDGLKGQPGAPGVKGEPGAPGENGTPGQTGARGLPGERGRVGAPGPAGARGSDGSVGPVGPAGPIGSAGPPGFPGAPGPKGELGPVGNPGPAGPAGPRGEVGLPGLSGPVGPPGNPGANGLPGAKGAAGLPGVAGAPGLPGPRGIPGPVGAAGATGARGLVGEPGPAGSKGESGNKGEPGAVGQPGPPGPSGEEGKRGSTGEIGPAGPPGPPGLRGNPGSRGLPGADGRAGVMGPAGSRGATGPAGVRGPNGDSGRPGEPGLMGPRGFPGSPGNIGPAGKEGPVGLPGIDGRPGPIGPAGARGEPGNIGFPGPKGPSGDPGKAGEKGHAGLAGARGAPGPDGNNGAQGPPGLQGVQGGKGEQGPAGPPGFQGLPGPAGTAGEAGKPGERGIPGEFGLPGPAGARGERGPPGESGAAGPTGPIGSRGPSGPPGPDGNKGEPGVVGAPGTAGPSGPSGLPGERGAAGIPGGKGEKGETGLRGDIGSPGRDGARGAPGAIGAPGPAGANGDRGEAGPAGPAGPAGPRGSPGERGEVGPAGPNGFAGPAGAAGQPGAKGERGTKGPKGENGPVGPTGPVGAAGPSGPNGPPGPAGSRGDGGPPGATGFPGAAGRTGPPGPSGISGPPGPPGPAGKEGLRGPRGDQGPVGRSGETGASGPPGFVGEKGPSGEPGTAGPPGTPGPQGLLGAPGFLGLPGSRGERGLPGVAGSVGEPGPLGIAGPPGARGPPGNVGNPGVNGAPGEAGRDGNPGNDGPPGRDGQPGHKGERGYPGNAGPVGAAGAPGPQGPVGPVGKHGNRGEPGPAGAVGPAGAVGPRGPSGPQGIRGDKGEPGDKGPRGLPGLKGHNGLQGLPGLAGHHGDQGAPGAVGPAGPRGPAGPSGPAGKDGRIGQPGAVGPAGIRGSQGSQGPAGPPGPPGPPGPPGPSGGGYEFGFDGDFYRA
Sequence of complement component C1q (human) (P02745 23-245, chain 1 of 3): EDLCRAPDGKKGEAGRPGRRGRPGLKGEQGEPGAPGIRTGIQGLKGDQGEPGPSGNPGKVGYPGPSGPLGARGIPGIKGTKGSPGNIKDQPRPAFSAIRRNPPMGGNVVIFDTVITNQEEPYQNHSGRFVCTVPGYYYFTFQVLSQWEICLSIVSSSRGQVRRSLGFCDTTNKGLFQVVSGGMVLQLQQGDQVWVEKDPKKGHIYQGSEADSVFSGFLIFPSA
Sequence of complement component C1q (human) (P02746 28-253, chain 2 of 3, further chain): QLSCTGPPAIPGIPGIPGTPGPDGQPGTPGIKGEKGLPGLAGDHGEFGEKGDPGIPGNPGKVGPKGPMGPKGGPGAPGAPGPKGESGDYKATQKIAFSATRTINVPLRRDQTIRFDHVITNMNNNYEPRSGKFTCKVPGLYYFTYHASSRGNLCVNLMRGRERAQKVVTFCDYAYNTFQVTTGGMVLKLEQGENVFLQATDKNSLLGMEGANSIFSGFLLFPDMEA
Sequence of complement component C1q (human) (P02747 29-245, chain 3 of 3, further chain): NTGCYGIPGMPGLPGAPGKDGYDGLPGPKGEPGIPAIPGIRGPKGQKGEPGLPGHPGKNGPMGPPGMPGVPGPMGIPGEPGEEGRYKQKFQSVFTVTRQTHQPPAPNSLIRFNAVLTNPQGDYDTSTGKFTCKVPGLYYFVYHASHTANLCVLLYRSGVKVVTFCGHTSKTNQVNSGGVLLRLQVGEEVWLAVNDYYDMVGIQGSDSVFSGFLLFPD

The term Kd denotes the equilibrium constant for the complex coming apart. As for “C‐SSURE, recombinant polyhistidine‐tagged polypeptide encompassing amino acids 902–1053 (C‐terminal SSURE domain) of the PfbB protein (domain or fragment)”, the figures for the Kd in assay [1], in assay [2] and in assay [3] were 1720 nM, 5210 nM and 1160 nM, respectively.

B1: N‐SSURE, recombinant polyhistidine‐tagged polypeptide encompassing amino acids 144–293 (N‐terminal SSURE domain) of the PfbB protein (domain or fragment)
chain: AETTPEQVKGGVKENTKDSIDVPAAYLEKAEGKGPFTAGVNQVIPYELFAGDGMLTRLLLKASDNAPWSDNGTAKNPALPPLEGLTKGKYFYEVDLNGNTVGKQGQALIDQLRANGTQTYKATVKVYGNKDGKADLTNLVATKNVDININ
notes: also called N‐terminal repeat; SSURE 1
As to B1, the Kd was 1200 ± 300 nM in the assay with human type VI collagen and 1580 ± 100 nM with human type IV collagen.
